Reference: patent publication US20260193348A1
Residue numbers refer to the chain shown, from its start.

B1: Bis-108-H3L4 (bispecific antibody, not shown: a dimerising Fc or GST)
heavy: EVQLVQSGAEVKKPGASVKVSCKASGYTFTSYVIHWVRQAPGQGLEWMGYFNPYNDGTKYNEEFKGRVTLTSDKSTSTAYMELRSLRSDDTAVYYCARGGVRRYFDVWGQGTTVTVSS
heavy (part 1 of 2): B1 heavy
heavy (part 2 of 2): GGGGSGGGGSEVQLVESGGGLVQPGGSLRLSCAASGFTFNTYAMNWVRQAPGKGLEWVARIRSKYNNYATYYAASVKGRFTISRDDSKNSLYLQMNSLKTEDTAVYYCARHGNFGNSYVSWFAYWGQGTLVTVSSGGGGSGGGGSGGGGSGGGGSQTVVTQEPSLTVSPGGTVTLTCRSSTGAVTTSNYANWVQQKPGQAPRGLIGGTNKRAPGTPARFSGSLLGGKAALTLSGVQPEDEAEYYCALWYSNLWVFGGGTKLTVLGGGGSGGGGS
light: DIQMTQSPSSLSASVGDRVTITCRASQDIGSNLNWLQQKPGKAIKRLIYATFGLDSGVPSRFSGSRSGTDFTLTISSLQPEDFATYYCQQYASFPYTFGGGTKVEIK
B2: Bis-108-H1L4 (bispecific antibody, not shown: a dimerising Fc or GST)
heavy: B1 heavy with L70M, S72T, K74T
heavy (part 1 of 2): B1 heavy with L70M, S72T, K74T
heavy (part 2 of 2): B1 heavy (part 2 of 2)
light: B1 light
B3: Bis-108-H5L3 (bispecific antibody, not shown: a dimerising Fc or GST)
heavy: B1 heavy with R38K, M48I, R67K, V68A, S72T
heavy (part 1 of 2): B1 heavy with R38K, M48I, R67K, V68A, S72T
heavy (part 2 of 2): B1 heavy (part 2 of 2)
light: B1 light with R66G, F71Y
B4: Bis-108-H2L4 (bispecific antibody, not shown: a dimerising Fc or GST)
heavy: B1 heavy with M48I, V68A, L70M, S72T, K74T
heavy (part 1 of 2): B1 heavy with M48I, V68A, L70M, S72T, K74T
heavy (part 2 of 2): B1 heavy (part 2 of 2)
light: B1 light
B5: ATG-Bis-108 (bispecific antibody, not shown: a dimerising Fc or GST)
heavy: EVQLQQSGPELVKPGASVKMSCKASGYTFTSYVIHWVKQKTGQGLEWIGYFNPYNDGTKYNEEFKGKATLTSDKSSNTAYMELNSLTSDDSAVYFCARGGVRRYFDVWGAGTTVTVSS
heavy (part 1 of 2): B5 heavy
heavy (part 2 of 2): B1 heavy (part 2 of 2)
light: DIQMTQSPSSLSASLGERVSLTCRASQDIGSNLNWLQQEPDGTIKRLIYATFGLDSGVPKRFSGSRSGSDYSLTISSLESEDFVDYYCQQYASFPYTFGGGTKLEIK

Target: GPRC5D (G-protein coupled receptor family C group 5 member D), human, on multiple myeloma cell lines (human) (UniProt Q9NZD1)
Sequence (Q9NZD1 whole entry): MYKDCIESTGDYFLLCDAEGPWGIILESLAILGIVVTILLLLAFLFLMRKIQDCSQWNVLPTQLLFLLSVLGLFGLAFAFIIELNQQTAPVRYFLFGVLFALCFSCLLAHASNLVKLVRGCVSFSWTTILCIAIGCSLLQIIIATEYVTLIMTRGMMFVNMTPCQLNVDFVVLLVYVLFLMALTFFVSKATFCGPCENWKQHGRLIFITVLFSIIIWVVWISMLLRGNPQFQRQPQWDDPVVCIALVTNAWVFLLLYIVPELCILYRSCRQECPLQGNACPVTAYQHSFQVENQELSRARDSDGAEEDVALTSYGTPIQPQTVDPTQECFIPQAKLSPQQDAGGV
Test: cell-based or functional assay

Binder | IC50 (nM), T-Cell Dependent Cytotoxicity, MM.1S [nM] | Top (%), T-Cell Dependent Cytotoxicity, MM.1S [%]
B1 | 0.0496 | 72.4
B2 | 0.0597 | 75.5
B3 | 0.0897 | 74.8
B4 | 0.0934 | 74
B5 | 0.0871 | 77.2
